Test results taken from the supplement of paper PMC9732359.
± gives the uncertainty stated by the source.

Assay: protein stability index of a GFP-peptide fusion (yeast GPS) (PSI 1-4); higher = more stable; sorted into four equal gates, so the index is relative within each strain
Outline: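 Tiled 17-residue peptides from yeast proteins were fused downstream of GFP on a plasmid that also expresses Cherry, and the pooled library was carried in yeast. Mid-log cultures grown in leucine-free medium were sorted into four equal gates by GFP/Cherry fluorescence ratio. Plasmids from each gate were PCR-amplified and Illumina-sequenced, and reads were assigned to strains by barcodes. Each peptide's protein stability index is the sum, over gates, of the gate's read frequency multiplied by its gate number.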

Row | Sequence | protein stability index (pdr5∆) | protein stability index (san1∆) | protein stability index (doa10∆) | protein stability index (ubr1∆)
1 | PFFARFKLRIQTTEGYD [RPB11] | 1.37 ± 0.12 | 1.37 ± 0.26 | – | –
2 | NPPYSQCIVYPNCLFIL [SOH1] | 2.06 ± 0.044 | 1.86 ± 0.06 | 1.76 ± 0.038 | 1.86 ± 0.035
3 | LEGTRVSLEERTKNLVS [SMC4] | 3.42 ± 0.075 | 3.34 ± 0.048 | 3.45 ± 0.09 | 3.35 ± 0.08
4 | VGGTTSISGFKEALLGQ [ARP9] | 2.53 ± 0.053 | 2.51 ± 0.048 | 2.67 ± 0.087 | 2.81 ± 0.039
5 | EELLLKDLEIRKLEISS [GAL11] | 2.31 ± 0.11 | 3.18 ± 0.081 | – | 1.09 ± 0.12
6 | SRLLDILEDYCYFRDFE [ISW2] | 1.42 ± 0.089 | 1.5 ± 0.12 | 1.71 ± 0.088 | 1.21 ± 0.058
7 | SRDKTIKVWTIKGQCLA [ASC1] | 2.04 ± 0.074 | 2.12 ± 0.11 | 1.63 ± 0.078 | 1.83 ± 0.06
8 | KVESQETLNDTIERSLI [YCS4] | 2.99 ± 0.071 | 2.96 ± 0.072 | 2.73 ± 0.092 | 2.97 ± 0.057
9 | NVLNRIQELEDQRDELL [ITC1] | 3.15 ± 0.085 | 3.5 ± 0.077 | 3.39 ± 0.12 | 3.56 ± 0.12
10 | ENNTDSARKELEQKIHE [SMC1] | 2 ± 0.094 | 2.79 ± 0.086 | 2.33 ± 0.1 | 3.01 ± 0.1
11 | NKTDAQAPTTGFSFGSQ [YJL041W/NSP1] | 2.98 ± 0.06 | 3.28 ± 0.077 | 2.91 ± 0.064 | 3.07 ± 0.069
12 | NVESVGSIPVDQVVVRG [RPB3] | 2.45 ± 0.072 | 2.3 ± 0.07 | 2.63 ± 0.057 | 2.23 ± 0.059
13 | SRQKSGLFDSFTNGVLA [YML031W/NDC1] | 1.5 ± 0.065 | 1.92 ± 0.12 | 1.68 ± 0.064 | 1.49 ± 0.06
14 | TITNSSSSSDIIVPDLI [YML103C/NUP188] | 3.07 ± 0.052 | 2.83 ± 0.061 | 2.87 ± 0.081 | 3.05 ± 0.056
15 | KADAQREKALNEEAEAR [RPL19A] | 3.45 ± 0.2 | 3.23 ± 0.081 | 3.22 ± 0.083 | 3.33 ± 0.098
16 | ASKVLLKIFLYLESLFA [IRR1] | – | 2.02 ± 0.24 | – | –
17 | AQAQAQAQAQAQAAQAA [GAL11] | 3.27 ± 0.045 | 3.258 ± 0.023 | 2.91 ± 0.055 | 3.15 ± 0.057
18 | RSEDPAGLGKTNELWAR [YGR119C/NUP57] | 2.24 ± 0.077 | 3.25 ± 0.075 | 2.82 ± 0.068 | 3.4 ± 0.088
19 | LSSIEASLKIKNATDLQ [SMC3] | 2.06 ± 0.091 | 2.56 ± 0.12 | 1.84 ± 0.064 | 2.4 ± 0.077
20 | ILRDYGPQEAANAMNRM [RPO31] | 1.83 ± 0.26 | 2.86 ± 0.22 | – | –
21 | LAALNVWYGLSDGEDGH [SSN2] | 3.39 ± 0.11 | 3.04 ± 0.067 | 3.19 ± 0.12 | 3.12 ± 0.077
22 | DVTPISMFGSDQKTGRA [RPN4] | 3.11 ± 0.094 | 3.07 ± 0.066 | 2.93 ± 0.069 | 2.95 ± 0.069
23 | EDEGEELTDEYLAENPD [PRP8] | 3.39 ± 0.13 | 3.33 ± 0.12 | 3.43 ± 0.12 | 3.34 ± 0.092
24 | DSDKGSKLNELKKELKL [SMC2] | 3.02 ± 0.23 | – | 3.56 ± 0.18 | 3.33 ± 0.17
25 | ILGDLGKEFGTTPEKPE [FAS2] | 2.69 ± 0.072 | 2.51 ± 0.057 | 2.83 ± 0.087 | 2.78 ± 0.066
26 | HLLPAFLKVKGLVKQHL [RET1] | 3.8 ± 0.2 | – | 3.2 ± 0.22 | –

Row | Sequence | protein stability index (pdr5∆) | protein stability index (san1∆) | protein stability index (doa10∆) | protein stability index (ubr1∆)
27 | ADYRLILTGTPLQNNLP [SNF2] | 2.15 ± 0.043 | 1.65 ± 0.058 | 2.08 ± 0.047 | 2.03 ± 0.037
28 | TGSIRHRLKLCKSLISE [CSE2] | – | – | 3.49 ± 0.29 | –
29 | ETRRKTTTVLKRYANHT [RET1] | 2.98 ± 0.084 | 3.09 ± 0.045 | 2.14 ± 0.083 | 2.94 ± 0.05
30 | GKGNTFEKVGSHLYKAR [RPN14] | 2.81 ± 0.14 | – | 2.93 ± 0.25 | 3.27 ± 0.13
31 | FILLDRLRQFNLQPIST [SMC4] | 1.56 ± 0.037 | 1.49 ± 0.061 | 2.22 ± 0.04 | 1.32 ± 0.042
32 | GVYSDDELLSQLDLCKL [SRP68] | 3.21 ± 0.053 | 3.23 ± 0.043 | 3.09 ± 0.063 | 3.15 ± 0.068
33 | IVEINNVSNTFNKTTNI [YJL041W/NSP1] | 2.9 ± 0.05 | 2.71 ± 0.046 | 2.87 ± 0.048 | 2.86 ± 0.038
34 | LPSWSLGKWYSKEDYET [ARP7] | 1.12 ± 0.14 | – | 1.62 ± 0.17 | 1.09 ± 0.11
35 | NSSSMEEVMRIALMGQD [ESC2] | 2.67 ± 0.075 | 2.19 ± 0.12 | 2.69 ± 0.068 | 2.62 ± 0.049
36 | MKEDGLSFVDIVLSKAA [SIR4] | 2.8 ± 0.07 | 2.74 ± 0.12 | 1.88 ± 0.1 | 2.22 ± 0.053
37 | PTIEYVQCPTVIKLAKY [ARP9] | 1.87 ± 0.034 | 1.75 ± 0.068 | 1.97 ± 0.047 | 1.98 ± 0.032
38 | KDLVKNNVSFNAKDIQI [FAS1] | 2.62 ± 0.061 | 2.69 ± 0.07 | 2.46 ± 0.041 | 2.71 ± 0.043
39 | FRALGIIPDGEILEHIC [RPB2] | 2.55 ± 0.12 | 2.46 ± 0.089 | 2.43 ± 0.057 | 2.79 ± 0.047
40 | NDICSVENYETSSAFFY [SIR4] | 2.88 ± 0.051 | 2.64 ± 0.05 | 2.82 ± 0.046 | 2.77 ± 0.053
41 | HGVLQGTSQNYGTATAD [MED1] | 3.13 ± 0.076 | 2.96 ± 0.078 | 3.2 ± 0.091 | 3.14 ± 0.052
42 | PLELSAPIGKHYVVLDT [DIS3] | 2.78 ± 0.14 | 2.63 ± 0.086 | 2.83 ± 0.1 | 2.39 ± 0.11
43 | KIKDNKEKIKNNRQLPY [RPT5] | 3.24 ± 0.16 | 3.18 ± 0.1 | 3.23 ± 0.12 | 2.86 ± 0.1
44 | NYLKYLEYWCNPPYSQC [SOH1] | 2.25 ± 0.048 | 2.18 ± 0.063 | 2.14 ± 0.052 | 2.28 ± 0.036
45 | SGWGAVVYIIKKDEVVK [PUP3] | 2.96 ± 0.072 | 3.33 ± 0.052 | 3.25 ± 0.088 | 3.27 ± 0.057
46 | LKTVLHNGRDKIQFHIH [RGR1] | 1.49 ± 0.05 | 1.41 ± 0.074 | 1.49 ± 0.047 | 1.39 ± 0.048
47 | TVALREIRRFQKSTELL [HHT1] | 2.91 ± 0.087 | 3.07 ± 0.068 | 2.99 ± 0.098 | 3.02 ± 0.078
48 | DPLLAGLGETSGDNHTQ [RPT4] | 3.43 ± 0.21 | 3.5 ± 0.19 | 2.77 ± 0.26 | 3.25 ± 0.16
49 | RARVTKDLVEIKKEEGK [RPN5] | 3.42 ± 0.18 | 3.33 ± 0.17 | – | 3.59 ± 0.077
50 | ANLMLVMLRLLLVVIFK [SRB4] | 1.51 ± 0.047 | 1.24 ± 0.088 | 1.49 ± 0.045 | 1.46 ± 0.034
51 | SDNKKRSGSNAAASLPS [RPC82] | 3.19 ± 0.06 | 2.86 ± 0.042 | 2.89 ± 0.058 | 3 ± 0.038
52 | EIVDTYQEDIFVSESPS [ISW2] | 2.8 ± 0.11 | 3.35 ± 0.092 | 2.83 ± 0.093 | 2.6 ± 0.07
